Results on two proteins are retold here after article PMC5835687, “Great Cause—Small Effect: Undeclared Genetically Engineered Orange Petunias Harbor an Inefficient Dihydroflavonol 4-Reductase” (Frontiers in Plant Science, 2018).

Substrate in data set [1]: O=C1c2c(O)cc(O)cc2O[C@H](c2cc(O)c(O)c(O)c2)[C@H]1O
Briefly: purified protein. The note with it: NADPH-dependent reduction; labelled compound.

Substrate in data set [2]: O=C1c2c(O)cc(O)cc2O[C@H](c2ccc(O)c(O)c2)[C@H]1O
Briefly: DFR enzyme assay, radiolabelled substrate, as previously described. In kind it is biochemical, Zea mays. The note with it: NADPH-dependent reduction; labelled compound.

B1: recombinant PhDFR (Petunia × hybrida DFR) (Petunia x hybrida) (protein)
chain: MASEAVHAPSPPVAVPTVCVTGAAGFIGSWLVMRLLERGYNVHATVRDPENKKKVKHLLELPKADTNLTLWKADLTVEGSFDEAIQGCQGVFHVATPMDFESKDPENEVIKPTVRGMLSIIESCAKANTVKRLVFTSSAGTLDVQEQQKLFYDQTSWSDLDFIYAKKMTGWMYFASKILAEKAAMEEAKKKNIDFISIIPPLVVGPFITPTFPPSLITALSLITGNEAHYCIIKQGQYVHLDDLCEAHIFLYEHPKADGRFICSSHHAIIYDVAKMVREKWPEYYVPTEFKGIDKDLPVVSFSSKKLTDMGFQFKYTLEDMYKGAIDTCRQKQLLPFSTRSAEDNGHNREAIAISAQNYASGKENAPVANHTEMLSNVEV
The Km is the concentration of substrate that gives half-maximal velocity. Usually kcat stands for the number of substrate molecules converted per active site and unit of time at saturation. B1: in data set [1], the Michaelis constant (Km) amounted to 1.3 µM and the kcat came to 2.14 s⁻¹.

B2: recombinant A1 protein (maize DFR) (Zea mays) (protein)
chain: MERGAGASEKGTVLVTGASGFVGSWLVMKLLQAGYTVRATVRDPANVGKTKPLMDLPGATERLSIWKADLAEEGSFHDAIRGCTGVFHVATPMDFLSKDPENEVIKPTVEGMISIMRACKEAGTVRRIVFTSSAGTVNLEERQRPVYDEESWTDVDFCRRVKMTGWMYFVSKTLAEKAALAYAAEHGLDLVTIIPTLVVGPFISASMPPSLITALALITGNAPHYSILKQVQLIHLDDLCDAEIFLFENPAAAGRYVCSSHDVTIHGLAAMLRDRYPEYDVPQRFPGIQDDLQPVRFSSKKLQDLGFTFRYKTLEDMFDAAIRTCQEKGLIPLATAAGGDGFASVRAPGETEATIGA
notes: full-length A1 cDNA in pGEX-6P-1, GST fusion from E. coli, GST tag removed, purified; A1 CDS 1,074 bp
Take B2: in data set [1], the Km is 3.1 µM and the kcat was found to be 0.87 s⁻¹. In data set [2], the Km stood at 2.9 µM and the kcat came out at 0.70 s⁻¹.
